Values quoted from earlier work as cited in patent publication US7696205B2, “Cyclic derivatives as modulators of chemokine receptor activity” (Bristol-Myers Squibb Company, priority 2003, dated 2010).

Tested on: MCP-1 expression in peripheral blood mononuclear cells
Settings: effective therapy in human multiple sclerosis

B1: interferon b-1b: effective therapy in human multiple sclerosis (protein, UniProt P01574 22-187, looked up, variant C17S)
Interferon beta: MSYNLLGFLQRSSNFQSQKLLWQLNGRLEYCLKDRMNFDIPEEIKQLQQFQKEDAALTIYEMLQNIFAIFRQDSSSTGWNETIVENLLANVYHQINHLKTVLEEKLEKEDFTRGKLMSSLHLKRYYGRILHYLKAKEYSHCAWTIVRVEILRNFYFINRLTGYLRN
Q: Which “effect on MCP-1 expression in peripheral blood mononuclear cells” value does the source give for B1 here?
A: The value was “reduces MCP-1 expression”.
